Patent WO2016071355A1 (dated 2016)
Blank lines part the entries; values can stand above or below the binder they belong to.

Legend:
[1] = biological target: T1, soluble extracellular region of human CD38 fused to a 6-His-tag (human, UniProt P28907 43-300); experiment: SPR
T1 construct: also called human CD38 extracellular domain with a poly-histidine tag; human CD38 antigen

[2] = biological target: T2, soluble extracellular region of cynomolgus monkey CD38 antigen fused to a 6-His-tag (cynomolgus monkey, UniProt Q5VAN0 45-301); experiment: SPR
T2 construct: also called cynomolgus CD38

[3] = biological target: T1, soluble extracellular region of human …; experiment: SPR, antibody captured on protein G, CD38-His injected
Protein A = biological target: T3, Protein A (Staphylococcus aureus, UniProt P38507 212-269); experiment: protein A affinity chromatography
T3 construct: The resin ligand is a commercial recombinant Protein A derivative

Protein G = Protein G (UniProt P19909 303-497); experiment: protein G affinity chromatography, SDS-PAGE
human CD38 on cells = human CD38 on cells (human, UniProt P28907 1-300); experiment: cell-based or functional assay

Kd [1]: 1000 pM | fold lower binding than the mouse parental antibody [1]: 3 fold
B1: first humanized 9G7 antibody prototype (antibody, human IgG1, kappa, V domains shown)
VH: QVTLKESGPTLVKPTQTLTLTCTFSGLSLSTSGKGVGWIRQPPGKALEWLAHIWWDDDKRYNPALKSRLTITKDTSKNQVVLTMTNMDPVDTATYYCARIELGRSYVMDYWGQGTLVTVSS
VL: DIQMTQSPSSLSASVGDRVTITCQASQDVITSVAWFQQKPGKAPKLLIYSASYRYTGVPSRFSGSGSGTDFTFTISSLQPEDIATYYCQQHYTIPLTFGQGTKLEIKR
notes: Human IgG1 isotype; also called first antibody prototype; first humanized prototype

Kd [2]: 1000 pM | Kd [3]: 400 pM
B2: humanized 9G7 best-framework antibody (antibody, human IgG1, kappa, V domains shown)
VH: EVQLVESGGGLVQPGGSLRLSCAFSGLSLSTSGKGVGWIRQAPGKGLEWLAHIWWDDDKRYNPALKSRLTISKDTSKNTVYLQMNSLRAEDTAVYYCARIELGRSYVMDYWGQGTLVTVSS
VL: DIQMTQSPSSLSASVGDRVTITCRASQDVITSVAWFQQKPGKAPKLLIYSASYRYTGVPSRFSGSGSGTDFTLTISSLQPEDFATYYCQQHYTIPLTFGQGTKVEIKR
notes: Human IgG1

fold improvement of affinity over the first humanized prototype [1]: 2 fold | Kd [2]: 3200 pM | Kd [3]: 500 pM
B3: humanized 9G7 best-fit antibody (antibody, human IgG1, kappa, V domains shown)
VH: QVTLKESGPTLVKPTQTLTLTCTFSGLSLSTSGKGVGWIRQPPGKALEWLAHIWWDDDKRYNPALKSRLTITKDTSKNQVVLTMTNMDPVDTATYYCARIELGRSYVMDYWGQGTLVTVSS
VL: DIQMTQSPSSLSASVGDRVTITCQASQDVITSVAWYQQKPGKAPKLLIYSASYRYTGVPSRFSGSGSGTDFTFTISSLQPEDIATYYCQQHYTIPLTFGQGTKLEIKR
notes: Human IgG1; also called 9G7 best-fit F36Y humanized variant

Kd [3]: 3600 pM
B4: humanized HB-7 best-fit antibody (antibody, human IgG1, kappa, V domains shown)
VH: QVQLQESGPGLVKPSETLSLTCTVSGFSLISYGVHWVRQPPGKGLEWLGVIWRGGSTDYNAAFMSRLTISKDNSKNQVSLKLSSVTAADTAVYFCAKTLITTGYAMDYWGQGTLVTVSS
VL: DIQLTQSPSSLSASVGDRVTITCRASEDIYNRLAWYQQKPGKAPKLLISGATSLETGVPSRFSGSGSGKDYTLTISSLQPEDFATYYCQQYWSTPTFGQGTKLEIKR
notes: Human IgG1 format

binding result (Protein A): no binding | binding result (Protein G): no binding
B5: BTB homodimer construct lacking the VH3 based scFv (other)
chain: DKTHTCPPCPAPEAAGGPSVFLFPPKPKDTLMISRTPEVTCVVVDVSHEDPEVKFNWYVDGVEVHNAKTKPREEQYNSTYRVVSVLTVLHQDWLNGKEYKCKVSNKALPAPIEKTISKAKGQPREPEVATFPPSRDELTKNQVTLVCLVTGFYPSDIAVEWESNGQPENNYKTDPPLLESQGSFALSSRLRVDKSRWQQGNVFSCSVMHEALHNHYTQKSLSLSPGK

Kd [3]: 3200 pM
B6: BEAT CD38-HB7bestfit/CD3 antibody (bispecific antibody, human IgG1, kappa, L234A L235A)
heavy: QVQLQESGPGLVKPSETLSLTCTVSGFSLISYGVHWVRQPPGKGLEWLGVIWRGGSTDYNAAFMSRLTISKDNSKNQVSLKLSSVTAADTAVYFCAKTLITTGYAMDYWGQGTLVTVSSASTKGPSVFPLAPSSKSTSGGTAALGCLVKDYFPEPVTVSWNSGALTSGVHTFPAVLQSSGLYSLSSVVTVPSSSLGTQTYICNVNHKPSNTKVDKKVEPKSCDKTHTCPPCPAPEAAGGPSVFLFPPKPKDTLMISRTPEVTCVVVDVSHEDPEVKFNWYVDGVEVHNAKTKPREEQYNSTYRVVSVLTVLHQDWLNGKEYKCKVSNKALPAPIEKTISKAKGQPREPAVYTLPPSRDELTKNQVKLVCLVTGFYPSDIAVEWESNGQPENNYYTTPPVLDSDGSFSLVSWLNVDKSRWQQGNVFSCSVMHEALHNHYTQKSLSLSPGK
light: DIQLTQSPSSLSASVGDRVTITCRASEDIYNRLAWYQQKPGKAPKLLISGATSLETGVPSRFSGSGSGKDYTLTISSLQPEDFATYYCQQYWSTPTFGQGTKLEIKRTVAAPSVFIFPPSDEQLKSGTASVVCLLNNFYPREAKVQWKVDNALQSGNSQESVTEQDSKDSTYSLSSTLTLSKADYEKHKVYACEVTHQGLSSPVTKSFNRGEC
scFv: EVQLVESGGGLVQPGGSLRLSCAASGYTFTRYTMHWVRQAPGKGLEWIGYINPSRGYTYYADSVKGRFTLSTDKSKNTAYLQMSSLRAEDTAVYYCARYYDDHYCLDYWGQGTLVTVSSGGGGSGGGGSGGGGSGGGASDIQLTQSPSSLSASVGDRVTITCRASSSVSYVAWYQQKPGKAPKRWIYDTSKLYSGVPSRFSGSGSGTDYTLTISSLQPEDFATYYCQQWSSNPPTFGQGTKVEIKGGGGTDKTHTCPPCPAPEAAGGPSVFLFPPKPKDTLMISRTPEVTCVVVDVSHEDPEVQFKWYVDGVEVHNAKTKPREEQYNSTFRVVSVLTVLHQDWLNGKEYKCKVSNKALPAPIEKTISKTKGQPREPEVATFPPSREEMTKNQVTLVCLVTGFYPSDIAVEWESSGQPENNYNTDPPLLESDGSFALSSRLRVDKSRWQQGNIFSCSVMHEALHNRFTQKSLSLSPGK
EC50, T cell redirected killing of RPMI 8226 myeloma cells (RDL-FACS, purified T cells, 48h) (human CD38 on cells): 2.2 pM

B7: BEAT CD38-HB7bestfit/CD3(SP34) antibody (bispecific antibody)
heavy: QVQLQESGPGLVKPSETLSLTCTVSGFSLISYGVHWVRQPPGKGLEWLGVIWRGGSTDYNAAFMSRLTISKDNSKNQVSLKLSSVTAADTAVYFCAKTLITTGYAMDYWGQGTLVTVSSASTKGPSVFPLAPSSKSTSGGTAALGCLVKDYFPEPVTVSWNSGALTSGVHTFPAVLQSSGLYSLSSVVTVPSSSLGTQTYICNVNHKPSNTKVDKKVEPKSCDKTHTCPPCPAPEAAGGPSVFLFPPKPKDTLMISRTPEVTCVVVDVSHEDPEVQFKWYVDGVEVHNAKTKPREEQYNSTFRVVSVLTVLHQDWLNGKEYKCKVSNKALPAPIEKTISKTKGQPREPAVYTLPPSREEMTKNQVKLVCLVTGFYPSDIAVEWESSGQPENNYYTTPPMLDSDGSFSLVSWLNVDKSRWQQGNIFSCSVMHEALHNRFTQKSLSLSPGK
light: DIQLTQSPSSLSASVGDRVTITCRASEDIYNRLAWYQQKPGKAPKLLISGATSLETGVPSRFSGSGSGKDYTLTISSLQPEDFATYYCQQYWSTPTFGQGTKLEIKRTVAAPSVFIFPPSDEQLKSGTASVVCLLNNFYPREAKVQWKVDNALQSGNSQESVTEQDSKDSTYSLSSTLTLSKADYEKHKVYACEVTHQGLSSPVTKSFNRGEC
scFv: not shown
EC50, T cell redirected killing of Daudi cells (RDL-FACS, PBMCs, 24h) (human CD38 on cells): 1.8 pM

Kd [3]: 2500 pM
B8: chimeric HB-7 antibody (antibody, human IgG1, kappa, V domains shown)
VH: KVQLQESGPSLVQPSQRLSITCTVSGFSLISYGVHWVRQSPGKGLEWLGVIWRGGSTDYNAAFMSRLSITKDNSKSQVFFKMNSLQADDTAIYFCAKTLITTGYAMDYWGQGTTVTVSS
VL: DIELTQSPSSFSVSLGDRVTITCKASEDIYNRLAWYQQKPGNAPRLLISGATSLETGVPSRFSGSGSGKDYTLSITSLQTEDVATYYCQQYWSTPTFGGGTKLEIKR

B9: BEAT CD38-9G7Mouse/CD3 (bispecific antibody, human IgG1, kappa, L234A L235A)
heavy: not shown
light: DIVMTQSHKFMSTSVGDRVSISCKASQDVITSVAWFQQKPGQSPKLLIYSASYRYTGVPDRFTGSGSGTDFTFTISSVQAEDLAVYYCQQHYTIPLTFGAGTKLELKRTVAAPSVFIFPPSDEQLKSGTASVVCLLNNFYPREAKVQWKVDNALQSGNSQESVTEQDSKDSTYSLSSTLTLSKADYEKHKVYACEVTHQGLSSPVTKSFNRGEC
scFv: EVQLVESGGGLVQPGGSLRLSCAASGYTFTRYTMHWVRQAPGKGLEWIGYINPSRGYTYYADSVKGRFTLSTDKSKNTAYLQMSSLRAEDTAVYYCARYYDDHYCLDYWGQGTLVTVSSGGGGSGGGGSGGGGSDIQLTQSPSSLSASVGDRVTITCRASSSVSYVAWYQQKPGKAPKRWIYDTSKLYSGVPSRFSGSGSGTDYTLTISSLQPEDFATYYCQQWSSNPPTFGQGTKVEIKGGGGTDKTHTCPPCPAPEAAGGPSVFLFPPKPKDTLMISRTPEVTCVVVDVSHEDPEVQFKWYVDGVEVHNAKTKPREEQYNSTFRVVSVLTVLHQDWLNGKEYKCKVSNKALPAPIEKTISKTKGQPREPEVATFPPSREEMTKNQVTLVCLVTGFYPSDIAVEWESSGQPENNYNTDPPLLESDGSFALSSRLRVDKSRWQQGNIFSCSVMHEALHNRFTQKSLSLSPGK
EC50, killing of Daudi cells (flow cytometry, PBMCs, 48h) (human CD38 on cells): 3.2 pM

B10: BEAT CD38-OKT10Mouse/CD3 (bispecific antibody, human IgG1, kappa, L234A L235A)
heavy: QVELVESGGSLKLSCAASGFDFSRSWMNWVRQAPGKGLEWIGEINPDSSTINYTTSLKDKFIISRDNAKNTLYLQMTKVRSEDTALYYCARYGNWFPYWGQGTLVTVSSASTKGPSVFPLAPSSKSTSGGTAALGCLVKDYFPEPVTVSWNSGALTSGVHTFPAVLQSSGLYSLSSVVTVPSSSLGTQTYICNVNHKPSNTKVDKKVEPKSCDKTHTCPPCPAPEAAGGPSVFLFPPKPKDTLMISRTPEVTCVVVDVSHEDPEVKFNWYVDGVEVHNAKTKPREEQYNSTYRVVSVLTVLHQDWLNGKEYKCKVSNKALPAPIEKTISKAKGQPREPAVYTLPPSRDELTKNQVKLVCLVTGFYPSDIAVEWESNGQPENNYYTTPPVLDSDGSFSLVSWLNVDKSRWQQGNVFSCSVMHEALHNHYTQKSLSLSPGK
light: DILMTQSQKIMPTSVGDRVSVTCKASQNVDTNVAWYQQKPGQSPKALIYSASYRYSGVPDRFTGSGSGTDFTLTITNVQSEDLAEYFCQQYDSYPLTFGAGTKLDLKRTVAAPSVFIFPPSDEQLKSGTASVVCLLNNFYPREAKVQWKVDNALQSGNSQESVTEQDSKDSTYSLSSTLTLSKADYEKHKVYACEVTHQGLSSPVTKSFNRGE
scFv: EVQLVESGGGLVQPGGSLRLSCAASGYTFTRYTMHWVRQAPGKGLEWIGYINPSRGYTYYADSVKGRFTLSTDKSKNTAYLQMSSLRAEDTAVYYCARYYDDHYCLDYWGQGTLVTVSSGGGGSGGGGSGGGGSDIQLTQSPSSLSASVGDRVTITCRASSSVSYVAWYQQKPGKAPKRWIYDTSKLYSGVPSRFSGSGSGTDYTLTISSLQPEDFATYYCQQWSSNPPTFGQGTKVEIKGGGGTDKTHTCPPCPAPEAAGGPSVFLFPPKPKDTLMISRTPEVTCVVVDVSHEDPEVQFKWYVDGVEVHNAKTKPREEQYNSTFRVVSVLTVLHQDWLNGKEYKCKVSNKALPAPIEKTISKTKGQPREPEVATFPPSREEMTKNQVTLVCLVTGFYPSDIAVEWESSGQPENNYNTDPPLLESDGSFALSSRLRVDKSRWQQGNIFSCSVMHEALHNRFTQKSLSLSPGK
EC50, killing of Daudi cells (flow cytometry, PBMCs, 48h) (human CD38 on cells): 126 pM
